The results in this text go back to publication PMC4169746 (Molecular cell, 2014).

Data set [1] has as its target dephosphorylated IRAK4^FL (human) (UniProt Q9NWZ3). In words: SEC-MALS. (In general: Size exclusion chromatography separates by hydrodynamic size, large species first.)
Data set [2] concerns the target dephosphorylated IRAK4^KD (human) (UniProt Q9NWZ3). Nature of the data set: SEC-MALS.
The data set “SEC-MALS” concerns the molecule itself. In words: SEC-MALS.
The data set “AUC” deals with the molecule itself. In words: AUC.

In general, stoichiometry N refers to the number of molecules, sites or subunits per partner or assembly. In data set [1], “dephosphorylated IRAK4^FL (from UniProt Q9NWZ3 1-460) (enzyme)” gave a stoichiometry N of 2.

As for “dephosphorylated IRAK4^KD (from UniProt Q9NWZ3 186-454) (domain or fragment)”, in data set [2], the stoichiometry N is 2.

B1: IRAK4^KD-D311N (IRAK4 kinase domain, catalytically inactive, unphosphorylated) (domain or fragment, human, UniProt Q9NWZ3 164-460, looked up)
chain: RFHSFSFYELKNVTNNFDERPISVGGNKMGEGGFGVVYKGYVNNTTVAVKKLAAMVDITTEELKQQFDQEIKVMAKCQHENLVELLGFSSDGDDLCLVYVYMPNGSLLDRLSCLDGTPPLSWHMRCKIAQGAANGINFLHENHHIHRNIKSANILLDEAFTAKISDFGLARASEKFAQTVMTSRIVGTTAYMAPEALRGEITPKSDIYSFGVVLLEIITGLPAVDEHREPQLLLDIKEEIEDEEKTIEDYIDKKMNDADSTSVEAMYSVASQCLHEKKNKRPDIKKVQQLLQEMTAS
B1: the “stoichiometry N” value in “SEC-MALS” worked out at 2.

B2: IRAK4^KD-D311N Y262T (domain or fragment, human, UniProt Q9NWZ3 164-460, looked up)
chain: RFHSFSFYELKNVTNNFDERPISVGGNKMGEGGFGVVYKGYVNNTTVAVKKLAAMVDITTEELKQQFDQEIKVMAKCQHENLVELLGFSSDGDDLCLVTVYMPNGSLLDRLSCLDGTPPLSWHMRCKIAQGAANGINFLHENHHIHRNIKSANILLDEAFTAKISDFGLARASEKFAQTVMTSRIVGTTAYMAPEALRGEITPKSDIYSFGVVLLEIITGLPAVDEHREPQLLLDIKEEIEDEEKTIEDYIDKKMNDADSTSVEAMYSVASQCLHEKKNKRPDIKKVQQLLQEMTAS
In the case of B2, in “SEC-MALS”, the binding result is listed as “binds”.

B3: IRAK4^FL-D311N (full-length IRAK4, catalytically inactive, unphosphorylated) (enzyme, human, UniProt Q9NWZ3 1-460, looked up)
chain: MNKPITPSTYVRCLNVGLIRKLSDFIDPQEGWKKLAVAIKKPSGDDRYNQFHIRRFEALLQTGKSPTSELLFDWGTTNCTVGDLVDLLIQNEFFAPASLLLPDAVPKTANTLPSKEAITVQQKQMPFCDKDRTLMTPVQNLEQSYMPPDSSSPENKSLEVSDTRFHSFSFYELKNVTNNFDERPISVGGNKMGEGGFGVVYKGYVNNTTVAVKKLAAMVDITTEELKQQFDQEIKVMAKCQHENLVELLGFSSDGDDLCLVYVYMPNGSLLDRLSCLDGTPPLSWHMRCKIAQGAANGINFLHENHHIHRNIKSANILLDEAFTAKISDFGLARASEKFAQTVMTSRIVGTTAYMAPEALRGEITPKSDIYSFGVVLLEIITGLPAVDEHREPQLLLDIKEEIEDEEKTIEDYIDKKMNDADSTSVEAMYSVASQCLHEKKNKRPDIKKVQQLLQEMTAS
By Kd is commonly meant the equilibrium constant for the complex coming apart. Read a high Kd as weaker binding. As for B3, in the data set “AUC”, the dissociation constant Kd is 2500 ± 400 nM.
